B1: VHH 3MFR60 (family 10) (VHH)
VHH: QVQLQESGGGLVQAGGSLRVSCAASGIIFSMNGMGWFRQAPGKQRELVASITSGGSTKYADSVKGRFTISRDNAKNTVYLQMNSLKPEDTAVYYCNIQFGSRWSTYWGQGTQVTVSS
B2: VHH 2HFO19 (family 1) (VHH)
VHH: QVQLQESGGGLVQPGGSLRVSCAASGFPFSTVYMSWVRQAPGKGLEWVSGINNDGGVIDYADSVKGRFTISRDNAKNTLYLQLNSLKPEDTALYFCARGRSFVATLSSSLRGQGTQVTVSS
notes: also called Nb19
B3: VHH 2HFO42 (family 3) (VHH)
VHH: QVQLQESGGGLVQAGGSLRLSCAASGSGFSGMIMGWYRQVPGKQRELVATVTSHGTTNYADSVKGRFTISRDNAKNTVLLQMNSLKPEDTAVYYCNAHFPGIYWGKGTQVTVSS
notes: also called 2HF042; Nb42

Tests used:
[1] = biological target: T1, mouse folate receptor alpha (mFRα), recombinant protein (mouse, UniProt P35846 25-232); assay: BLI tandem binning on mouse FRα; competitor (1st association) 3MFR60
T1 construct: Bought recombinant proteins (e.g. biotinylated, Acro Biosystems FO1-M82E9); also called mFOLR1; Ms FOLR1
Source text: VHHs that share high sequence identity in the CDR3 region, a VHH family, are derived from the same B-cell lineage and diverged from each other due to somatic hypermutation or affinity maturation. Typically, VHHs from the same family recognize the same epitope on the target, but may differ in other characteristics ^{∘}De Genst et al 2006 PNAS 103:4586-4591; De Gents et al 2005 J Biol Chem 280:14114-14121). To study whether the VHHs from the different families bound different epitopes, epitope binning was performed using a tandem binding approach in BLI. One VHH from each family was allowed to bind to mouse FRα on the biosensor, followed by binding of the second VHH ^{∘}Table 4).
Competition between VHHs from different complementarity determining region ^{∘}CDR) 3 families was assessed in a tandem binding assay using biolayer interferometry ^{∘}BLI). Streptavidin biosensors were loaded with biotinylated mouse FRα ^{∘}Acro Biosystems, Cat.nr. FO1-M82E9), followed by binding of anti-FRα VHHs ^{∘}VHH in first association). The biosensors were then transferred to a solution containing a second VHH mixed 1:1 with the first VHH ^{∘}VHH in second association). Using the FortéBio Data Analysis Software the absolute additional binding signal for the second association on top of the first association was calculated. The data were normalized per VHH in first association using the following formula: ^{∘}signal-self)/^{∘}maximum-self) with self being the value of the VHH in first association in combination with the same VHH in second association.

[2] = biological target: T1, mouse folate receptor alpha (mFRα), …; assay: ELISA on recombinant mouse FOLR1, cMyc tag detection, normalised binding, non-linear fit
Procedure: (§1) Data were normalized and technical replicates were plotted as mean±SD. Data were fitted by non-linear regression and the half-maximal effective concentration ^{∘}EC50) was calculated using GraphPad Prism 9 software. ^{∘}FIG. 1C and FIG. 1D) Binding affinity determination of anti-FOLR1 VHHs for native FOLR1. Mouse ^{∘}FIG. 1C) or human FOLR1 FIG. 1D) was overexpressed on HEK293T cells and binding of the anti-FOLR1 VHHs was assessed using flow cytometry. The mean fluorescence intensity ^{∘}MFI) of the phycoerythrin signal was plotted for each VHH concentration. Data were fitted by non-linear regression using GraphPad Prism 9 software. ^{∘}FIG. 1E) Determination of the competition of representative family members with folic acid ^{∘}FA) using ELISA. Mouse FOLR1 was coated on the plate and was pre-incubated with or without 100 μM FA before adding the VHHs. Data were fitted by non-linear regression using GraphPad Prism 9 software.
(§2) In a first step, binding affinity and cross-reactivity of the purified VHHs to human and mouse FRα was assessed by ELISA, using detection of the cMyc tag ^{∘}FIG. 1A-B). […] 2HFO19 ^{∘}family 1) was the best binder of all tested VHHs to both mouse and human FRα with an EC₅₀ of 0.1 nM and 0.4 nM respectively ^{∘}FIG. 1A-B).

[3] = biological target: T2, human folate receptor alpha (hFRα), recombinant protein (human, UniProt P15328 25-233); assay: ELISA on recombinant human FOLR1, cMyc tag detection, normalised binding, non-linear fit
T2 construct: Bought recombinant proteins (His-tagged, or biotinylated via Avi-tag, e.g. AcroBiosystems FO1-H82E2, F01-H52H1); also called hFOLR1; huFOLR1
Procedure: as §1, §2

[4] = biological target: T3, human FOLR1/2 chimera 4 (human, UniProt P15328 25-234); assay: flow cytometry on transiently transfected HEK293T cells, mouse anti-His then anti-mouse-PE (B575-A)
T3 construct: Region of amino acids 140-150 of hFOLR1 replaced by hFOLR2
Procedure: Chimera 1 SEQ ID No. 67) and 7 ^{∘}Ch7; SEQ ID No. 73) also contain an additional residue change at a separate location. […] HEK293T cells were transfected with hFOLR1, hFOLR2, one of the hFOLR1/2 chimeric constructs ^{∘}FIG. 2B) or single residue mutants ^{∘}FIG. 2C). Binding of VHHs 2HFO19, 2HFO42, 3MFR60, and a mouse anti-FOLR1 monoclonal antibody ^{∘}mAb) was detected using a mouse anti-His tag antibody for the VHHs followed by an anti-mouse-phycoerythrin antibody. All VHHs were tested at a concentration of 200 nM and untransfected cells were used as a negative control. The colors used for the VHHs represent the different CDR3 families; blue: family 1, green: family 3, grey: family 10.
To identify the exact region in which the VHHs bind to FRα, epitope mapping experiments were performed. Since the VHHs are able to bind human FRα, but not FRβ, we generated seven human FOLR1/2 chimeric constructs where regions of human FOLR1 were replaced by the corresponding human FOLR2 ^{∘}FRβ) regions ^{∘}FIG. 2A): chimera 1 SEQ ID No. 67), chimera 2 ^{∘}SEQ ID No. 68), chimera 3 ^{∘}SEQ ID No. 69), chimera 4 ^{∘}SEQ ID No. 70), chimera 5 ^{∘}SEQ ID No. 71), chimera 6 ^{∘}SEQ ID No. 72) and chimera 7 ^{∘}SEQ ID No. 73). Three additional chimera 1 constructs were made: chimera 1a ^{∘}replacing fragment 31-40; SEQ ID No. 74), chimera 1b ^{∘}replacing fragment 41-50; SEQ ID No. 75) and chimera 1c ^{∘}replacing fragment 51-64; SEQ ID NO. 76). The constructs were transiently transfected into HEK293T cells and dose-dependent binding of the VHHs to the wild-types FRα and FRβ ^{∘}WTs) or the chimeric constructs was assessed via flow cytometry via detection of the tag ^{∘}FIG. 2B). […] Different anti-FRα VHHs were able to bind to cell-expressed FRα-FRβ chimeras to a similar level as WT FRα, with the exception of chimera 4 ^{∘}SEQ ID No. 70) where the binding was completely abolished for all VHHs.

[5] = biological target: T1, mouse folate receptor alpha (mFRα), …; assay: ELISA on coated mouse FOLR1, without folic acid
Procedure: as §1
(§3) As interference with the endogenous transport of folates via FRα could have serious implications on brain homeostasis, competition between representative family members and FA for mouse FRα binding was assessed via ELISA ^{∘}FIG. 1E).

[6] = biological target: T1, mouse folate receptor alpha (mFRα), …; assay: ELISA on coated mouse FOLR1 pre-incubated with 100 µM folic acid
Procedure: as §1, §3

T3 sequence (P15328 other isoform, or with tags, fused parts or gaps mutant limits assumed): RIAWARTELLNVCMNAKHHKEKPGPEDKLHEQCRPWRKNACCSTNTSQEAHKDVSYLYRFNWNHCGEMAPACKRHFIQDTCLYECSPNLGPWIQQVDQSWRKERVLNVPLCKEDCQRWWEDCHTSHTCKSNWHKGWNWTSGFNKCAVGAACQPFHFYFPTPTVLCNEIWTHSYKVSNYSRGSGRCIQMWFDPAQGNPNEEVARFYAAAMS
T1 sequence (P35846 25-232 limits assumed): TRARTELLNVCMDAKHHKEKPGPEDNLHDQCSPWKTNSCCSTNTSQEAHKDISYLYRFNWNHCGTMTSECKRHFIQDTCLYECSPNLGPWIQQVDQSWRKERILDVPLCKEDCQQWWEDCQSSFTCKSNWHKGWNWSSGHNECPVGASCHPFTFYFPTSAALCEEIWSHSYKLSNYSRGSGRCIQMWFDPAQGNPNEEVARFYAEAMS
T2 sequence (P15328 25-233 limits assumed): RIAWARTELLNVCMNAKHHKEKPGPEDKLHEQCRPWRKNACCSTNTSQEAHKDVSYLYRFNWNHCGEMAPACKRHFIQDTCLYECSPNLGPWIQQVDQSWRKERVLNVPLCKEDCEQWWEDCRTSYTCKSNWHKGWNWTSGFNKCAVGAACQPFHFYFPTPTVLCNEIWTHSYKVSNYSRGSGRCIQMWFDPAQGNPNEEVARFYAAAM

Binder	normalized additional binding in 2nd association [1] [%]	EC50 [2] [nM]	EC50 [3] [nM]	binding result [4]	EC50 (read off the curve) [5] [nM]	EC50 (read off the curve) [6] [nM]
B1	0	0.3	11.1	no binding (tested: 200 nM)	–	–
B2	-7	–	–	no binding (tested: 200 nM)	~1	~1
B3	-2	0.2	10.4	no binding (tested: 200 nM)	~2	2 to 3
